This note sets out measurements from patent US10456465B2, “Compositions, kits, and methods for the diagnosis prognosis, monitoring, treatment and modulation of post-transplant lymphoproliferative disorders and hypoxia associated angiogenesis disorders using galectin-1” (Dana-Farber Cancer Institute, Inc., priority 2009, dated 2019).

One experiment concerns B16 tumors. Nature of the experiment: Anti-tumor immune response in B16 tumor-bearing mice (TDLN restimulation, FACS). The format is in vivo, mouse. As to the method: Wild-type KS cells or shRNA clones (5×10^6 cells) were injected subcutaneously into 6- to 8-week old nude mice. Wild-type B16 cells or shRNA clones (2×10^5 cells) were injected into 6- to 8-week old B6 or B6/Rag^−/− mice and tumor development was monitored as described in Rubinstein et al. (2004) Cancer Cell 5, 241-251. Treatments with 8F4F8G7 mAb or control isotype (2.5, 7.5 or 15 mg/kg; i.p. injections every three days) were initiated when tumors reached 100 mm^3. Mice were sacrificed when tumors reached a volume greater than 2 cm^3. At 2 weeks after tumor challenge, lymph node cells (5×10^5 cells/well) were restimulated for 72 h with 1×10^4 irradiated (4,000 rads) B16 cells and were analyzed for proliferation and cytokine production. For adoptive transfer, splenic T cells (5×10^6) from tumor-bearing mice were labeled with CFSE (Molecular Probes) and injected through the tail vein into tumor-bearing recipient mice treated with 8F4F8G7 or control mAb. In related studies, fluorescent beads (3 μm; BD Biosciences), rather than splenic T cells, were injected into tumor-bearing animals treated with 8F4F8G7 or control antibody. CFSE^+ cells or PerCP-labeled beads were analyzed after 24 h or 15 min respectively by flow cytometry in tumor parenchyma and spleen.
For intracellular cytokine staining, TLDN or tumor-infiltrating lymphocytes were made permeable with Perm2 solution (BD Biosciences) and were labeled with fluorescent-labeled monoclonal anti-IFN-γ (XMG1.2; BD Biosciences), anti-IL-17 (TC11-18H10; BD Biosciences), anti-IL-10 (JESS-16E3; eBioscience), anti-CD4 (GK1.5; BD Biosciences), anti-CD8 (H35-17.2; eBioscience) antibodies. Treg cells were determined by using the mouse Treg staining kit (FJK-16s, eBioscience). Cells were analyzed on a FACSAria (BD Biosciences) using a FlowJO software.
Mouse IFN-γ and IL-10 ELISA sets were from BD Biosciences and mouse IL-17 kit was from R&D. Human soluble VEGF was assessed by ELISA (DY293B; R&D). Soluble Gal1 was determined using an in-house ELISA. Briefly, high binding 96-well microplates (Corning Costar) were coated with capture antibody (2 μg/ml purified rabbit anti-Gal1 polyclonal IgG) in 0.1 M sodium carbonate pH 9.5. After incubation for 18 hours at 4° C., wells were rinsed three times with wash buffer (0.05% Tween-20 in PBS) and incubated for 1 h at RT with blocking solution (2% BSA in PBS). Samples and standards (100 μl) were diluted in 1% BSA and incubated for 18 hours at 4° C. Plates were then washed and incubated with 100 ng/ml biotinylated detection antibody (purified rabbit anti-Gal1 polyclonal IgG) for 1 hour at RT. Plates were rinsed three times before adding horseradish peroxidase-labeled streptavidin (0.33 μg/ml; Sigma) for 30 min at RT. After washing, 100 μl of TMB solution (0.1 mg/ml tetramethylbenzidine and 0.06% H2O2 in citrate-phosphate buffer pH 5) was added to the plates. The reaction was stopped by adding 4N H2SO4. Optical densities were determined at 450 nm in a Multiskan MS microplate reader (Thermo Electron Corporation). A standard curve ranging from 2.5 to 160 ng/ml recombinant Gal1 was run in parallel.

The target in a further experiment is T1, Gal8 (Homo sapiens, UniProt O00214).
T1 construct: made in house
T1 sequence (O00214 1-317): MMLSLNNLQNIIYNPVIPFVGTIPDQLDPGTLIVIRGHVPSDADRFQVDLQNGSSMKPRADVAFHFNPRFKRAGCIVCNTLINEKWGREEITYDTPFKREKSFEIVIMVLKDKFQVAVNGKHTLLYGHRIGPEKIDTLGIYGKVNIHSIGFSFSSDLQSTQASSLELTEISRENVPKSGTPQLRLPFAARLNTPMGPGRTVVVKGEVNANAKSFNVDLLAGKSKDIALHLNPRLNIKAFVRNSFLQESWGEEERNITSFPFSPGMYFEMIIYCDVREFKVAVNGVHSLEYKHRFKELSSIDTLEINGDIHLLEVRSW
Nature of the experiment: Binding of 488-Gal8 to HUVEC. To be noted: 488-Gal8 20 μg/ml, mAb 0.5 μM. As to the method:
For glycophenotyping, ECs were incubated with biotinylated L-PHA, LEL, SNA, MAL II, PNA and HPA (all from Vector). Recombinant Gal1 was purified as described in Ilarregui et al. (2009) Nat Immunol 10, 981-991. For binding assays, ECs were incubated for 1 h at 4° C. with dyLight 488-labeled galectins in the absence or presence of lactose, sucrose, anti-Gal1 or isotype control mAb or following transfection with GnT5, GCNT1 or scrambled siRNA. Cells were analyzed on a FACSAria (BD Biosciences). For segregation, ECs were treated with Gal1 for 1 h, fixed and incubated for 1 h with anti-human VEGFR2 antibody (55B11; Cell Signaling) as described in Ilarregui et al. (2009) Nat Immunol 10, 981-991. Cells were analyzed on a Nikon laser confocal microscope (Eclipse E800).
DyLight 488-conjugated Gal1 (488-Gal1) was obtained using DyLight labeling kit (Thermo Scientific). Inhibitors of Jak2-STAT3 (AG490; 5 μM), Jnk-SAP (SP600125; 20 μM), p38 (SB202190; 10 μM), HIF-1α (3 μM) and O-glycosylation (benzyl-α-Ga1NAc; 2 mM) were from Calbiochem. Inhibitors of Erk1/2 (U0126; 5 μM), PI(3)K-Akt (Ly294002; 2 μM) and NF-κB (BAY 11-7082; 1 μM), ROS (N-acetyl-cysteine; NAC), N-glycosylation (swainsonine; 3 μM), lactose or sucrose (30 mM) were from Sigma. PNGase F (25 U/μg protein) was from New England Biolabs. […]

[1] abbreviates: restimulated ex vivo with B16 cells.

B1: anti-Gal1 monoclonal antibody 8F4F8G7 (antibody, V domains shown)
VH: EVQLQQSVAEFVRPGASVRLSCTASGFNIKNTYIHWVRQRPEQGLEWIGKIDPANGNTKYVPEFQGKATMTADTSSNTVYLHLSSLTSEDTAIYYCVDGYYGWYFAVWGTGTTVTVSS
VL: QAVVTQESALTTSPGETVTLTCRSSTGAVTTSNYANWVQEKPDHLFTGLIGATNNRAPGVPARFSGSLIGDKAVLTITGAQTEDEAIYFCALWYRNHFIFGSGTKVTVL
notes: Murine hybridoma mAb (deposit PTA-10535), lambda light chain; also called 14-19 8F4-F8-G7; clone 8F4.8F.67
B1: the “B16-specific IL-10 production” value in the experiment with B16 tumors (mouse, in vivo) is “blunted”. Moreover, in the experiment with B16 tumors (setting [1]), the “proliferation of tumor-draining lymph node cells” value is “stimulated”; the “synthesis and secretion of IFN-γ by tumor-draining lymph node cells” value is given as “stimulated”; the “synthesis and secretion of IL-17 by tumor-draining lymph node cells” value was “stimulated”. Besides, the “frequency of CD4+CD25+FoxP3+ Treg cells in TDLN” value with B16 tumors (vs isotype control) is recorded as “decline”. For the same molecule, in the experiment with B16 tumors (vs isotype-treated mice), the “number of tumor-infiltrating IFN-γ-producing CD8+ T cells” value is reported as “dramatic increase”. Besides, the “effect on binding of Gal8 to the EC surface” value with Gal8 was “did not interfere”.
